Measurements taken from patent US20120213794A1 (published 2012).

What follows are binders tested against T1, human PCSK9 (human, UniProt Q8NBP7 31-692) (assay: SPR (Biacore), Fab captured by anti-Fab IgG, 1:1 fit).
T1 construct: also called hPCSK9; proprotein convertase subtilisin-kexin type 9
Description: Biacore assay was developed. First, goat anti-Fab IgGs were immobilized onto CM5 chip by amine coupling as described above. The anti-Fab IgGs were diluted to 200 μg/ml in pH 5/10 mM Acetate solution, and injected onto the NHS/EDC activated surface to achieve an immobilization level of ˜10,000 RU, followed with surface inactivation by injection of Ethanolamine. Then Fab samples at concentration of 2 μg/ml in HBS-P running buffer were injected for 3 minutes at flow speed of 20 ul/min, followed with K-injection (3 minutes injection for association and 6 minutes for dissociation) of PCSK9 at concentration of 10 to 100 nM. The sensor chip surface was regenerated by 30 second injection of 100 mM phosphoric acid. The binding sensorgrams were fitted with 1:1 Langmuir binding model to determine the binding affinity.

T1 sequence (Q8NBP7 31-692 limits assumed): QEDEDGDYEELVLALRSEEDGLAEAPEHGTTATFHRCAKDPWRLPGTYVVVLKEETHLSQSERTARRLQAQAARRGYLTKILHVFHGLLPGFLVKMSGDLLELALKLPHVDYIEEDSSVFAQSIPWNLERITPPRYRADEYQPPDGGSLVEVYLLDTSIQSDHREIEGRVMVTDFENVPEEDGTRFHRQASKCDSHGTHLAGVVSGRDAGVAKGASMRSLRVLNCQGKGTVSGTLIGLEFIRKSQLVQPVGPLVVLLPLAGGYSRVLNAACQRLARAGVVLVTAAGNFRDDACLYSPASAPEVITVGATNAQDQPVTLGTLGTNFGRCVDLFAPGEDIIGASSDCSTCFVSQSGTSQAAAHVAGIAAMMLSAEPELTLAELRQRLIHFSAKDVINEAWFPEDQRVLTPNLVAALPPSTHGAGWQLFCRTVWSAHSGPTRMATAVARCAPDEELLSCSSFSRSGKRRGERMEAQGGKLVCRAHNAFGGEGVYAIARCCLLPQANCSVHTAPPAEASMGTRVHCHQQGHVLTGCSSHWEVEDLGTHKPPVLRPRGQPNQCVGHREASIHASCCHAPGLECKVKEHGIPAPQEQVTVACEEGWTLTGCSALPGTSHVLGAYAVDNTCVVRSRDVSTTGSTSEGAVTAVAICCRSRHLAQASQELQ

Row | Kd [nM] | koff [s⁻¹] | kon [M⁻¹ s⁻¹] | Binder
1 | 1.67 | 0.000287 | 172000 | AX210 Fab (Fab, V domains shown, Tested as purified Fab) VH: QVQLLESGGGLVQPGGSLRLSCKASGYTFSSYSIYWVRQAPGKGLEWIGWIDPGNGGTRYNQKFQSKATISRDNSKNTLYLQMNSLRAEDTAVYYCARARVGYSLDYWGQGTLVTVSS VL: EIVLTQSPATLSLSPGERATITCRASQYVGSYLNWYQQKPGQAPRLLIYDASNRATGIPARFSGSGSGTDFTLTISSLEPEDFAVYYCQVWDSSPPVVFGGGTKVEIK
2 | 1.47 | 0.000233 | 159000 | AX212 Fab (Fab, V domains shown, Tested as purified Fab) VH: QVQLLESGGGLVQPGGSLRLSCKASGYTFSSYSFSWVRQAPGKGLEWIGYIDPGSGGTKYNQKFQGKATISRDNSKNTLYLQMNSLRAEDTAVYYCARQRVGYSLDYWGQGTLVTVSS VL: EIVLTQSPATLSLSPGERATITCRASQYVGSYLNWYQQKPGQAPRLLIYDASNRATGIPARFSGSGSGTDFTLTISSLEPEDFAVYYCQVWDSSPPVVFGGGTKVEIK
3 | 1.37 | 0.000329 | 243000 | AX213 Fab (Fab, V domains shown) VH: QVQLLESGGGLVQPGGSLRLSCKASGYTFSRYGINWVRQAPGKGLEWIGRIDPGNGGTRYNEKFKGKATISRDNSKNTLYLQMNSLRAEDTAVYYCARANDGYSFDYWGQGTLVTVSS VL: EIVLTQSPATLSLSPGERATITCRASQYVGSYLNWYQQKPGQAPRLLIYDASNRATGIPARFSGSGSGTDFTLTISSLEPEDFAVYYCQVWDSSPPVVFGGGTKVEIKR
4 | 1.67 | 0.000329 | 197000 | AX211 Fab (Fab, V domains shown, Tested as purified Fab) VH: QVQLLESGGGLVQPGGSLRLSCKASGYTFSRQGFTWVRQAPGKGLEWIGWIDPGNGGTRYNEKFKGKATISRDNSKNTLYLQMNSLRAEDTAVYYCARYRVGYSLDYWGQGTLVTVSS VL: EIVLTQSPATLSLSPGERATITCRASQYVGSYLNWYQQKPGQAPRLLIYDASNRATGIPARFSGSGSGTDFTLTISSLEPEDFAVYYCQVWDSSPPVVFGGGTKVEIK

Further lines, the binder ahead of its results:

Row | Binder | Kd [nM] | koff [s⁻¹] | kon [M⁻¹ s⁻¹]
5 | AX139 Fab (Fab, V domains shown, Tested as purified Fab) VH: EVQLLESGGGLVQPGGSLRLSCKASGYTFSSYGMYWVRQAPGKGLEWIGWIDPGSGGTKYNEKFKGKATISRDNSKNTLYLQMNSLRAEDTAVYYCARERYGYYFDYWGQGTLVTVSS VL: EIVLTQSPATLSLSPGERATITCRASQYVGSYLNWYQQKPGQAPRLLIYDAANRATGIPARFSGSGSGTDFTLTISSLEPEDFAVYYCQVWDSSPPVVFGGGTKVEIK | 13.2 | 0.00118 | 89700
6 | AX137 Fab (Fab, V domains shown, Tested as purified Fab) VH: EVQLLESGGGLVQPGGSLRLSCKASGYTFSSYGMYWVRQAPGKGLEWIGWIDPGSGGTKYNEKFKGKATISRDNSKNTLYLQMNSLRAEDTAVYYCARERYGYYFDYWGQGTLVTVSS VL: EIVLTQSPATLSLSPGERATITCRASQYIGSYLNWYQQKPGQAPRLLIYDASNRATGIPARFSGSGSGTDFTLTISSLEPEDFAVYYCQAWDSSPPVVFGGGTKVEIK | 19.5 | 0.00208 | 107000
7 | AX114 Fab (Fab, V domains shown, Tested as purified Fab from E. coli TG1) VH: EVQLLESGGGLVQPGGSLRLSCKASGYTFSSYGMYWVRQAPGKGLEWIGWIDPGSGGTKYNEKFKGKATISRDNSKNTLYLQMNSLRAEDTAVYYCARERYGYYFDYWGQGTLVTVSS VL: EIVLTQSPATLSLSPGERATITCRASQYVGTYLNWYQQKPGQAPRLLIYDASNRATGIPARFSGSGSGTDFTLTISSLEPEDFAVYYCQVWDSSPPVAFGGGTKVEIK | 48.5 | 0.00348 | 71700
